Results from US20240254222A1 (Bayer, published 2024).
Changes are numbered by the printed parent chain.

T1: Dog Semaphorin3A-Sema Domain, TPP-19121 (dog, UniProt Q63548 21-569 (rat entry), limits assumed)
T1 construct: produced inhouse
T1 chain: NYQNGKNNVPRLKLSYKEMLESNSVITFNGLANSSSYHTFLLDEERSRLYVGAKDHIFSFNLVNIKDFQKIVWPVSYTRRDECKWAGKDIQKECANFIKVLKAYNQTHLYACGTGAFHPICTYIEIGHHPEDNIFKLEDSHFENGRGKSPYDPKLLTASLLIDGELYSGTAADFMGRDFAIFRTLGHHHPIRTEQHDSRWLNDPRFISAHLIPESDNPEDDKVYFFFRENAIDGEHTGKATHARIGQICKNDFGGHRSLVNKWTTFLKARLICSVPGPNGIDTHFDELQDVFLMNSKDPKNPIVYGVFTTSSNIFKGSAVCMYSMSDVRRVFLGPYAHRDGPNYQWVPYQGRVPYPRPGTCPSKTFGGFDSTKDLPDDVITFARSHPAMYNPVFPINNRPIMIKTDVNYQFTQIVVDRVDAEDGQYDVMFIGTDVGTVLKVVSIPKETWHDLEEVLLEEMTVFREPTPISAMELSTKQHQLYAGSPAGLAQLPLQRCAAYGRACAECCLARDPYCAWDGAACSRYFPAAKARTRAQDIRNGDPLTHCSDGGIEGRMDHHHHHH

T2: Pig Semaphorin3A-Sema Domain, TPP-20176 (pig, UniProt Q63548 21-569 (rat entry))
T2 construct: produced inhouse
T2 chain: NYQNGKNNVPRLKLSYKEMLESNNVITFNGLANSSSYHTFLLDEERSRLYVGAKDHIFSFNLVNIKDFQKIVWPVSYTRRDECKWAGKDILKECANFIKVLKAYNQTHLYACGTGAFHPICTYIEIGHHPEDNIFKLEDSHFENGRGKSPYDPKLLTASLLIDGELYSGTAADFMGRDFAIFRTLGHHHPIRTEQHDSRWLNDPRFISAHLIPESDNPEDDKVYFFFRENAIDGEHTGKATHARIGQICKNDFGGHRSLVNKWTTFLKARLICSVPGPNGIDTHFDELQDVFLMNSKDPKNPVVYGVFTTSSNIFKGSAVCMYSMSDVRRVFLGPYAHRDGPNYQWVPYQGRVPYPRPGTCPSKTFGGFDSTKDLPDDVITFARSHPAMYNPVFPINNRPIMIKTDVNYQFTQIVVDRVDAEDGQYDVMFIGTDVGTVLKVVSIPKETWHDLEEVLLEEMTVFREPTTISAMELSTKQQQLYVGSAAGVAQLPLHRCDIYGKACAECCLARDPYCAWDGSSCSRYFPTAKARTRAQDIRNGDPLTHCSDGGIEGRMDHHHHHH

T3: Human Semaphorin3A-Sema Domain, TPP-19068 (human, UniProt Q14563 21-569)
T3 construct: produced inhouse in HEK293-6E; also called human monovalent Sema3A domain
T3 sequence: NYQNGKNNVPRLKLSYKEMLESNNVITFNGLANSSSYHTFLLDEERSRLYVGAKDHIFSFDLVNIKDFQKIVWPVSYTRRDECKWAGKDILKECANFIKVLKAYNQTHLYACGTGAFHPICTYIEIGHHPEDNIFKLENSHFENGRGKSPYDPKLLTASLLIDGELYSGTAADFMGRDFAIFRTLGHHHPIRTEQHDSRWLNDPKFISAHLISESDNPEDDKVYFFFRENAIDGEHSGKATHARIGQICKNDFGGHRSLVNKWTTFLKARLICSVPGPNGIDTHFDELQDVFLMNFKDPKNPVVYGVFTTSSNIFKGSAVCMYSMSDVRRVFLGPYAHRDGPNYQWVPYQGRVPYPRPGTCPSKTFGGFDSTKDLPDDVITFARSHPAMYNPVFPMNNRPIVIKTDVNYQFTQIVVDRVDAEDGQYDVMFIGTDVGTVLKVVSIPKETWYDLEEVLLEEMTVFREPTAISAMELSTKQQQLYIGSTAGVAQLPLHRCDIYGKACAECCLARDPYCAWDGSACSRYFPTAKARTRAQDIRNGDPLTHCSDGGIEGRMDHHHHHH

T4: Mouse Semaphorin3A-Sema Domain, TPP-19069 (mouse, UniProt O08665 21-569)
T4 construct: produced inhouse
T4 sequence: T2 chain with Q3A, K102E, I126V, E138Q, T237S, V303I, I444V, V455I, V483I, A486T

B1: TPP-17755 (antibody, human IgG1, lambda, V domains shown)
VH: EVQLLESGGGLVQTGGSLRLSCAASGFTFSDYAMSWVRQAPGKGLEWVSWIYYDSGSKYYADSVKGRFTISRDNSKNTLYLQMNSLRAEDTAVYYCAKLNGDFDYWGQGTLVTVSS
VL: QSVLTQPPSASGTPGQRVTISCSGSSSNIGNNDVSWYQQLPGTAPKLLIYADSHRPSGVPDRFSGSKSGTSASLAISGLRSEDEADYYCGAWDSSLSGYVFGGGTKLTVLG
notes: also called Samsung; Samsung Prior Art F11
B2: TPP-23298 (antibody, human IgG4 S228P, lambda, V domains shown)
VH: EVQLLESGGGLVQPGGSLRLSCAASGFTFYSYAMSWVRQAPGKGLEWVSAIGTGGDTYYADSVKGRFTISRDNSKNTLYLQMNSLRAEDTAVYYCARRDDYTSRDAFDYWGQGTLVTVSS
VL: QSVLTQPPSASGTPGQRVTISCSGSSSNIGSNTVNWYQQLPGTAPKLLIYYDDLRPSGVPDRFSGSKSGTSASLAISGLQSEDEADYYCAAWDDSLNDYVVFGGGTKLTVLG
B3: TPP-15370 (antibody, human IgG1, lambda, V domains shown)
VH: B2 VH with Y30S, A33G, S35H, K64M, Y109V
VL: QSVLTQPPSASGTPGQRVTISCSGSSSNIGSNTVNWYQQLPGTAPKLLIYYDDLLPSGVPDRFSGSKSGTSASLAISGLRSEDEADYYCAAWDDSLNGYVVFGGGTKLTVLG
notes: human IgG1; also called IgG1, hit from panning; parental mAb
B4: TPP-30788 (antibody, human IgG1, kappa, V domains shown)
VH: EVQLVESGGGLVQPGGSLRLSCAASGFTFSSYYMSWVRQAPGKGLEWVSTIIKSGGYAYYPDSVKDRFTISRDNSKNTLYLQMSSLRAEDTAVYYCVRGGQGAMDYWGQGTTVTVSS
VL: EIVLTQSPATLSLSPGERATLSCRASQSIGDYLHWYQQKPGQAPRLLIKYASQSISGIPARFSGSGSGTDFTLTITSLEPEDFAVYYCQQGYSFPYTFGGGTKLEIKR
notes: prior art, WO 2020/225400; also called BI clone I; Böhringer (BI) Clone I
B5: TPP-30789 (antibody, human IgG1, kappa, V domains shown)
VH: B4 VH with T28P
VL: B4 VL
notes: prior art, WO 2020/225400; also called BI clone II; Böhringer (BI) Clone II
B6: TPP-30790 (antibody, human IgG1, kappa, V domains shown)
VH: B4 VH with P14L, S84N, R98K
VL: B4 VL with K49Y, T76S
notes: prior art, WO 2020/225400; also called BI clone III; Böhringer (BI) Clone III
B7: TPP-30791 (antibody, human IgG1, kappa, V domains shown)
VH: B4 VH with V12L, P14L, Y80N, S84N, R98K
VL: B4 VL with T76S
notes: prior art, WO 2020/225400; also called BI clone IV; Böhringer (BI) Clone IV
B8: TPP-11489 (antibody, human IgG1, lambda)
heavy: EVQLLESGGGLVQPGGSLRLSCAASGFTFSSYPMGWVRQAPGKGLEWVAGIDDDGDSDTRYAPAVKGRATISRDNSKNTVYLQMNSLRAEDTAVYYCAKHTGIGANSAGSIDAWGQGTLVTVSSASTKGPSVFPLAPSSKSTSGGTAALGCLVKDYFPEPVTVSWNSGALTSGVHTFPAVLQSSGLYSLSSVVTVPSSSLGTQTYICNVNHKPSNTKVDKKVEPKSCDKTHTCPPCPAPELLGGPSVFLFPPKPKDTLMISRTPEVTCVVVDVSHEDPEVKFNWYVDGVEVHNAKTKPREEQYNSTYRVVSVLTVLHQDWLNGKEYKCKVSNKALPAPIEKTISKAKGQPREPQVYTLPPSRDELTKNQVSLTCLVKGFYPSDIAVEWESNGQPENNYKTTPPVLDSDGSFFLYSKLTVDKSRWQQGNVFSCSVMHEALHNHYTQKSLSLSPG
light: SYELTQPPSVSVSPGQTARITCSGGGSYTGSYYYGWYQQKPGQAPVTVIYYNNKRPSDIPERFSGSLSGTTNTLTISGVQAEDEADYYCGSADNSGDAFGTGTKVTVLGQPKAAPSVTLFPPSSEELQANKATLVCLISDFYPGAVTVAWKADSSPVKAGVETTTPSKQSNNKYAASSYLSLTPEQWKSHRSYSCQVTHEGSTVEKTVAPTECS
notes: human IgG1; also called Chiome; Chiome Prior Art (hIgG1)
B9: TPP-15374 (antibody, human IgG1, lambda, V domains shown)
VH: EVQLLESGGGLVQPGGSLRLSCAASGFTFSSYEMNWVRQAPGKGLEWVSGISWNSGSIGYADSVKGRFTISRDNSKNTLYLQMNSLRAEDTAVYYCARSGYSSSWFDPDFDYWGQGTLVTVSS
VL: QSVLTQPPSASGTPGQRVTISCTGSSSNIGAGYDVHWYQQLPGTAPKLLIYGNSNRPSGVPDRFSGSKSGTSASLAISGLRSEDEADYYCSSYAGSNPYVVFGGGTKLTVLG
notes: as for B3

Molecular target: T1, Dog Semaphorin3A-Sema Domain, TPP-19121
Assay: SPR, captured antibody, Sema3A domain analyte
Procedure: (§1) To assess the binding activity of anti-Sema3A antibodies binding assays were conducted using surface plasmon resonance (SPR). Binding assays were performed on a Biacore T200 instrument (Cytiva) at 25° C. using assay buffer HBS P+, 300 mM NaCl, 0.75 mM CaCl₂, 2.5 mM MgCl₂, 1 mg/ml BSA, 0.05% NaN₃. Antibodies were captured via anti-human Fc IgGs (“Human antibody capture kit”, Order No. BR100839, Cytiva) covalently amine coupled to a Series S CM5 sensor chip (Cytiva). The amine coupling was carried out according to the manufacturer's instructions using 1-ethyl-3-(3-dimethylaminopropyl) carbodiimide hydrochloride (EDC), N-hydroxysuccinimide (NHS) and ethanolamine HCl, pH 8.5 (“Amine Coupling Kit” BR-1000-50, Cytiva.). Human, mouse, cynomolgus, rat, dog and pig monovalent Sema3A domain were used as analytes in a concentration series from 0.024-3.125 nM in multi cycle kinetics mode. The sensor surface was regenerated with glycine pH 2.0 after each antigen injection. Obtained sensorgrams were double referenced (subtraction of reference flow cell signal and buffer injection) and were fitted to a 1:1 Langmuir binding model using the Biacore T200 Evaluation software obtaining the experimental fitted RMax value. To calculate the binding activity first the theoretical RMax needs to be calculated according to equation 1: […]
(§2) Binding activity was determined by dividing the experimental determined RMax by the theoretical calculated RMax according to equation 2: […]

| Binder | Binding Activity [%] |
| --- | --- |
| B1 | 55% |
| B2 | 107% |
| B3 | 114% |
| B4 | 106% |
| B5 | 102% |
| B6 | 92% |
| B7 | 106% |
| B8 | 22% |
| B9 | 98% |

Molecular target: T2, Pig Semaphorin3A-Sema Domain, TPP-20176
Assay: SPR, captured antibody, Sema3A domain analyte
Procedure: as §1, §2

| Binder | Binding Activity [%] |
| --- | --- |
| B1 | 60% |
| B2 | 107% |
| B3 | 111% |
| B4 | 107% |
| B5 | 103% |
| B6 | 92% |
| B7 | 105% |
| B8 | 77% |
| B9 | 103% |

The binders below were run against T3, Human Semaphorin3A-Sema Domain, … (assay: SPR, captured antibody, Sema3A domain analyte).
Procedure: as §1, §2

| Binder | Binding Activity [%] |
| --- | --- |
| B1 | 55% |
| B2 | 107% |
| B3 | 112% |
| B4 | 107% |
| B5 | 106% |
| B6 | 93% |
| B7 | 107% |
| B8 | 38% |
| B9 | 10% |

These binders were tested against T4, Mouse Semaphorin3A-Sema Domain, … (assay: SPR, captured antibody, Sema3A domain analyte).
Procedure: as §1, §2

| Binder | Binding Activity [%] |
| --- | --- |
| B1 | 57% |
| B2 | 108% |
| B3 | 11% |
| B4 | 108% |
| B5 | 103% |
| B6 | 93% |
| B7 | 107% |
| B8 | 118% |
| B9 | 106% |
